The record followed here is the supplement of paper PMC9170038.

For the series, the system named is MS2 coat protein. As to the kind of experiment: apparent KD of MS2 coat protein; designed switch direction (-1 OFF switch, 1 ON switch): -1; higher = weaker reporter binding. The method in brief:
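On Illumina chips, designed RNA switches with common flanks were made by stalled E. coli RNA polymerase. Titrations with SNAP-549-labelled MS2 coat protein, doubling from 0.7 or 1.5 nM to 3 µM, were done with no input, with 200 uM small-molecule ligand, or with an oligonucleotide input. Apparent KD is the median per design over clusters, from curve fits of normalised cluster fluorescence.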

The mark [1] stands for this setting: Eterna round: R95, input ligand: FMN 200 uM.
[2] abbreviates: Eterna round: R95, input ligand: microRNA oligo, concentration not stated.
[3] abbreviates: Eterna round: R95, input ligand: none.

For the sequence “GGAAAGCAAGGAUAUACGAGGAGAAGGAGGAAAGUUAAAGGACAUGAGGAUCACCCAUGUAGAAGGUGCGAGAG [JR_Exclu2_Sub041] (puzzle: Exclusion 2)”, the “apparent KD of MS2 coat protein” value is 30 nM under setting [1], 30.7 nM under setting [2] and 34.6 nM under setting [3].
For the sequence “GGAACGGCGAACAAGGCCCACAUGAGGAUCACCCAUGUGGCUGGGUGAUCUCGCUCGUCUUAUAUAUGGCUGGACCG [salish99-s2-off-006] (Eterna round: R96, puzzle: Sensor v2, turn-off variant)”, the “apparent KD of MS2 coat protein” value runs as follows: (input ligand: FMN 200 uM) 146 nM; (input ligand: microRNA oligo, concentration not stated) 23.8 nM; (input ligand: none) 104 nM.
For the sequence “GGAAGGAAGGAACAAGUUAACAUGAGGAUCACCCAUGUUGACUUCAUGUGCACGCAAAGCGUGCAAGCUCGUCUUAU [AK-miRNA-r3-16] (Eterna round: R97, puzzle: Sensor, turn-off variant 1)”, the “apparent KD of MS2 coat protein” value by setting is: (input ligand: FMN 200 uM) 18.3 nM; (input ligand: none) 17.3 nM.
In the case of “GGAAGGUCAGGAUAUGCGAGGGAGUGGGAAGUAGCAUGGUAGCAGAAGGGACAUGAGGAUCACCCAUGUUAGGA [JR_Exclu4_Sub0102] (puzzle: Exclusion 4)”, the “apparent KD of MS2 coat protein” value under setting [1] came to 35.2 nM, the “apparent KD of MS2 coat protein” value under setting [2] was 28.7 nM and the “apparent KD of MS2 coat protein” value under setting [3] came to 40.7 nM.
Take “GGAAUACAUGAGGAUCACCCAUGUAAGGAUAUGCUGAUUAACACGGAAUAAUUAUGCAGCAGAAGGUACAAAGG [Mat - Mod of my Eli Mod D48] (puzzle: Exclusion 1)”: the “apparent KD of MS2 coat protein” value under setting [2] amounted to 113 nM.
“GGACAGGGAGGAUAUACUUGAGGAUCACCCAAGUCGUAUAAUCGAUGAUCACGCCGAAGUAGAAGGCCCAAAAC [EX3 #82] (Eterna round: R97, puzzle: Exclusion 3)”: the “apparent KD of MS2 coat protein” value by setting is: (input ligand: FMN 200 uM) 36.1 nM; (input ligand: none) 353 nM.
The matching figures for “GGACCACAUGAGGAUCACCCAUGUCAGGAUAUGACGGCGUCGGCGAAAGCGGAGGCGGUCAGAAGGGACGGUAA [AK-MS2ROC-r4-exclusion1-10] (Eterna round: R97, puzzle: Exclusion 1)”: 72.3 nM and 32.4 nM.
The matching figures for “GGACCGAUAGGAUAUGUCGUUGCAUACAUGAGGAUCACCCAUGUGAACCCUUGGUGAACUGCAGAAGGAUUGCGCA [Eternabot (L1) Solution 41] (Eterna round: R97, puzzle: Exclusion 5)”: 240 nM and 221 nM.
The matching figures for “GGACCGAUUGUUAGGAUAUCGCACGGCUAGCCCAGCGAGAAGGGACAUGAGGAUCACCCAUGUGCGCUUAGCAC [Eternabot (L1) Solution 50] (Eterna round: R97, puzzle: Brourd's mod of Exclusion 4)”: 156 nM and 155 nM.
For “GGACCGUGUGUGAGGAUAUGCUGGUCCUUGGAUCAGCAGAAGGCACAUGAGGAUCACCCAUGUGGUGUCGGUCC [Eli bmx4 4.35] (Eterna round: R97, puzzle: Brourd's mod of Exclusion 4)”, the “apparent KD of MS2 coat protein” value reads like this: (input ligand: FMN 200 uM) 182 nM; (input ligand: none) 1780 nM.
The matching figures for “GGACCUCCUGAGGAUAUUGUAUCACCUGACUGAUAAGAAGGCAGAACAUGAGGAUCACCCAUGUGGGUACUCGG [Bingo-Bango-15] (Eterna round: R97, puzzle: Exclusion 6)”: 147 nM and 190 nM.
The matching figures for “GGAGAAGUAGGAUAUACAUGAGGAUCACCCAUGUUUUAAUUAAUAUAUGGAAUAGUAAGUAGAAGGAUUAAGUU [A finsh] (Eterna round: R97, puzzle: Exclusion 3)”: 35.4 nM and 38.4 nM.
The matching figures for “GGAGAGGUAGGAUAUGGACCUUAGAACAUGAGGAUCACCCAUGUAGGACCACAUGAAAUGCCAGAAGGACCAGUCC [AK-MS2ROC-r4-exclusion5-5] (Eterna round: R97, puzzle: Exclusion 5)”: 153 nM and 145 nM.
